Assay results taken from paper PMC6093203 (Journal of the American Chemical Society, 2018).

Biological target: non-phosphorylated PTEN (n-PTEN)
Test: fluorescence polarisation

B1: F-HECT-WWP2 (domain or fragment)
chain: KPYDLRRRLYIIMRGEEGLDYGGIAREWFFLLSHEVLNPMYCLFEYAGKNNYCLQINPASSINPDHLTYFRFIGRFIAMALYHGKFIDTGFTLPFYKRMLNKRPTLKDLESIDPEFYNSIVWIKENNLEECGLELYFIQDMEILGKVTTHELKEGGESIRVTEENKEEYIMLLTDWRFTRGVEEQTKAFLDGFNEVAPLEWLRYFDEKELELMLCGMQEIDMSDWQKSTIYRHYTKNSKQIQWFWQVVKEMDNEKRIRLLQFVTGTCRLPVGGFAELIGSNGPQKFCIDKVGKETWLPRSHTCFNRLDLPPYKSYEQLREKLLYAIEETEGFGQE
modifications: fluorescein on the N-terminal Cys
Kd: 120 µM
